Assay results taken from US20150056133A1 (Boehringer Ingelheim, published 2015).

T1: mouse CX3CR1 (mouse, UniProt Q9Z0D9 1-354)
T1 construct: whole, on cells
T1 sequence (looked up): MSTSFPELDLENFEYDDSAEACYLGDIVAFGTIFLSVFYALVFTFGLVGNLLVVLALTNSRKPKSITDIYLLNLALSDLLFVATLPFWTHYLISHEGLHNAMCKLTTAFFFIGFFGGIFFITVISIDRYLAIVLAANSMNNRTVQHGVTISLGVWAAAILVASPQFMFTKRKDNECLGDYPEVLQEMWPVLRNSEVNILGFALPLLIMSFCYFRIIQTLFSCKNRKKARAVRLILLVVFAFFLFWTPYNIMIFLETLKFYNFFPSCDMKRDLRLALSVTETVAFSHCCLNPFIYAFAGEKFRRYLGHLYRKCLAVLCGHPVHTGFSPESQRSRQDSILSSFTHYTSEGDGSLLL

T2: human CX3CR1 (human, UniProt P49238 1-355)
T2 construct: Presented on BA/F3-hCX3CR1, CHO-hCX3CR1 or HEK 293-hCX3CR1 cells, depending on the assay; also called hCX3CR1
T2 sequence (looked up): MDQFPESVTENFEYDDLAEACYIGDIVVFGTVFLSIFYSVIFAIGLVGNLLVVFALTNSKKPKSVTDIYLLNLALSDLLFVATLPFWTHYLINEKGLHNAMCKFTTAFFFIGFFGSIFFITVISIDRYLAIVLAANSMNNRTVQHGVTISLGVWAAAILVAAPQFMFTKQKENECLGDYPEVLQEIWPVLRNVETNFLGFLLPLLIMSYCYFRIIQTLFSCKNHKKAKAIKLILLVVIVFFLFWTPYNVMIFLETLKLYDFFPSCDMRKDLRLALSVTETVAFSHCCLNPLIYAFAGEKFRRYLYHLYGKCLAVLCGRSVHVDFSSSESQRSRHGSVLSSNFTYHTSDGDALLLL


What was measured:
human CCR2 = molecular target: T3, human CCR2 (human, UniProt P41597 1-374); experiment: FACS binding on CHO cells expressing human CCR2, anti-cmyc detection
T3 construct: whole, on cells
Description: (§1) Specificity for the hCX3CR1 receptor was evaluated by performing a FACS binding experiment on CHO-K1 parental cells or CHO cells expressing human CCR2, human CCR5 or mouse CX3CR1. The VHHs were incubated with the respective cell lines for 30 minutes at 4° C. followed by three wash steps and subsequently incubated with the detection reagents. As detection, a mouse anti-cmyc antibody (Serotec, MCA2200) followed by a goat anti-mouse antibody coupled to PE (Jackson 115-116-071) was used, each incubation was for 30 minutes at 4° C. and was followed by three wash steps. For each cell line a quality control with receptor-specific antibody was included. In addition, the highest concentration of each VHH was also incubated with CHO cells expressing hCX3CR1 as a positive control. No binding to mouse CX3CR1, human CCR2 or human CCR5 could be observed.

human CCR5 = molecular target: T4, human CCR5 (human, UniProt P51681 1-352); experiment: FACS binding on CHO cells expressing human CCR5, anti-cmyc detection
T4 construct: whole, on cells
Description: as §1

mouse CX3CR1 = molecular target: T1, mouse CX3CR1; experiment: FACS binding on CHO cells expressing mouse CX3CR1, anti-cmyc detection
Description: as §1

human CX3CR1 [1] = molecular target: T2, human CX3CR1; experiment: competition FACS against labeled fractalkine, HEK 293-hCX3CR1 cells
human CX3CR1 [2] = molecular target: T2, human CX3CR1; experiment: competition FACS against labeled fractalkine, BA/F3-hCX3CR1 cells
human CX3CR1 [3] = molecular target: T2, human CX3CR1; experiment: competition FACS against labeled fractalkine, CHO-hCX3CR1 cells
Description: Periplasmic extracts were screened in a human CX3CR1/human fractalkine FACS competition assay to assess the ability of the expressed VHHs to block the binding of the unique CX3CR1 ligand to the receptor. Human CX3CR1 was presented on CHO cells. As a detection reagent fractalkine (R&D Systems, Minneapolis, Minn., USA) labeled with Alexa Fluor 647 (A647-Fractalkine) at a degree of labeling of 1 was used. In brief, 50 μl of periplasmic extract was added to 6 nM labeled fractalkine (50 μl) and 2E5 CHO-hCX3CR1 cells. After one hour incubation at 4° C., cells were washed three times before analysis on a FACS Array (Becton Dickinson). First a gate was set on the intact cells as determined from the scatter profile. Next, dead cells were gated out by their fluorescence profile from the PI stain (Sigma, St Louis, US). The fluorescence profile from the Alexa Fluor 647 label was determined for each sample and used for the calculation of blocking capacity. As controls, conditions were taken along where there was no VHH present in the periplasmic extract or a known irrelevant VHH and samples were included with excess cold fractalkine. For each sample the percentage block was determined using the control samples to determine the assay window. […]

T3 sequence (P41597 whole entry): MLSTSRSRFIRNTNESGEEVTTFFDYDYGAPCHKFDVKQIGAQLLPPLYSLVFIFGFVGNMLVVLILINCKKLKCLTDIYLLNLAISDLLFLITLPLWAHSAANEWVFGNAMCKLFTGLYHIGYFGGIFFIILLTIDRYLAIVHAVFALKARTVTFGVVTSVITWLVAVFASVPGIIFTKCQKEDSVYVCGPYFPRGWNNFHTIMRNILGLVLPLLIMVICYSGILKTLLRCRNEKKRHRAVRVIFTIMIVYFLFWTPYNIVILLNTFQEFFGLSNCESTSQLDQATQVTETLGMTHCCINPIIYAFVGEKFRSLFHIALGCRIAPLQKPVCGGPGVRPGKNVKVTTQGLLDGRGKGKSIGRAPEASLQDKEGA
T4 sequence (P51681 whole entry): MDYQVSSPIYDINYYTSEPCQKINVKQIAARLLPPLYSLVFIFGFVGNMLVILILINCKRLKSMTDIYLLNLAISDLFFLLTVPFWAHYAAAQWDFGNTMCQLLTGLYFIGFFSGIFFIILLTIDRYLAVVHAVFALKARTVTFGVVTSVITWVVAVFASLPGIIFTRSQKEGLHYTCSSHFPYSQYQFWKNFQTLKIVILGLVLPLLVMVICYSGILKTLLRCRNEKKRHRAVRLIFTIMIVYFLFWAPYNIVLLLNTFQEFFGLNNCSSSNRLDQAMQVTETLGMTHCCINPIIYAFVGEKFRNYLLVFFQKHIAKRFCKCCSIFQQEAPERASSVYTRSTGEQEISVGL

Binder | binding result (human CCR2) | binding result (human CCR5) | binding result (mouse CX3CR1) | % Block (human CX3CR1 [1]) | IC50 (human CX3CR1 [1]) | IC50 (human CX3CR1 [2]) | IC50 (human CX3CR1 [3])
CX3CR1BII318 (VHH, Bivalent VHH (single polypeptide chain)) EVQLVESGGGSVQAGESLRLSCAASGSIFSSNAMAWYRQAPGKRRDLVAAINSVGVTKYADSVKGRFTISRDNAKNTVYLQMNSLKPEDTAVYYCTSDPRRGWDTRYWGQGTQVTVSSGGGGSGGGGSGGGGSGGGGSGGGGSGGGGSGGGGSEVQLVESGGGSVQAGESLRLSCAASGSIFSSNAMAWYRQAPGKRRDLVAAINSVGVTKYADSVKGRFTISRDNAKNTVYLQMNSLKPEDTAVYYCTSDPRRGWDTRYWGQGTQVTVSSAAAEQKLISEEDLNGAAHHHHHH | no binding | no binding | no binding | 102% | 0.3 nM | – | –
CX3CR1BII317 (VHH, Bivalent VHH (single polypeptide chain)) EVQLVESGGGLVQAGGSLRLSCVASGRTFSSYAMGWFRQAPGKERAFVAGISGSASRKYYADSVKGRFTVSRDNARNTVYLQMNSLKPEDTAVYYCAASNSYPKVQFDYYGQGTLVTVSSGGGGSGGGGSGGGGSGGGGSGGGGSGGGGSGGGGSEVQLVESGGGLVQAGGSLRLSCVASGRTFSSYAMGWFRQAPGKERAFVAGISGSASRKYYADSVKGRFTVSRDNARNTVYLQMNSLKPEDTAVYYCAASNSYPKVQFDYYGQGTLVTVSSAAAEQKLISEEDLNGAAHHHHHH | no binding | no binding | no binding | – | – | – | 3.4 nM
CX3CR1BII316 (VHH, Expressed in E. coli TG1 as c-myc, His6-tagged protein) VHH: EVQLVESGGGSVQAGESLRLSCAASGSIFSSNAMAWYRQAPPGKQRDLVALINSVGITKYADSVKGRFTISSDNAKNTVYLEMNSLKPEDTAVYYCTSDGRRGWDTRYWGQGTQVTVSS | no binding | no binding | no binding | 94% | 5.3 nM | – | –

The remaining lines, values ahead:

binding result (human CCR2) | binding result (human CCR5) | binding result (mouse CX3CR1) | % Block (human CX3CR1 [1]) | IC50 (human CX3CR1 [1]) | IC50 (human CX3CR1 [2]) | IC50 (human CX3CR1 [3]) | Binder
no binding | no binding | no binding | 102% | 2.5 nM | – | – | CX3CR1BII66B02 (VHH, Expressed in E. coli TG1 as c-myc, His6-tagged protein) VHH: EVQLVESGGGSVQAGESLRLSCAASGSIFSSNAMAWYRQAPGKRRDLVAAINSVGVTKYADSVKGRFTISRDNAKNTVYLQMNSLKPEDTAVYYCTSDPRRGWDTRYWGQGTQVTVSS
no binding | no binding | no binding | – | – | 2.8 nM | – | CX3CR1BII18E06 (VHH, Expressed in E. coli TG1 as c-myc, His6-tagged protein) VHH: KVQLVESGGGLVQPGGSLRLSCATSGTIFSNNAMGWYRQAPGKKRDLVASISSSGSTNYADSVKGRFTVSRDNDKNTGYLQMNSLKPEDTGVYYCTLDARRGWNTAYWGQGAQVTVSS
no binding | no binding | no binding | – | – | 8.1 nM | – | CX3CR1BII315 (VHH, Expressed in E. coli TG1 as c-myc, His6-tagged protein) VHH: EVQLVESGGGLVQAGGSLRLSCVASGRTFSSYAMGWFRQAPGKERAFVAGISGSASRKYYADSVKGRFTVSRDNARNTVYLQMNSLKPEDTAVYYCAASNSYPKVQFDYYGQGTQVTVSS
